Measured values reported in US20230212304A1 (BIOSION, published 2023).

T1: recombinant human CTLA4-his protein (Acro biosystems, Cat#CT4-H5229) (human, UniProt P16410 37-162)
T1 construct: bought recombinant protein; not shown: his tag
T1 sequence (looked up): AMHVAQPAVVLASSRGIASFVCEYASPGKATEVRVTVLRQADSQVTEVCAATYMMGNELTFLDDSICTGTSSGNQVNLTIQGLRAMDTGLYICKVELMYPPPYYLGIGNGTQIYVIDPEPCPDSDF


Target: T1, recombinant human CTLA4-his protein …
Assay: BLI, Octet; antibody from cell supernatant on AHC sensor, CTLA4-his as analyte
Description: Briefly, AHC biosensors (anti-human IgG Fc capture, from ForteBio) were presoaked with 10 mM glycine (pH 1.5) for 3 seconds, and then dipped in a well with running buffer (0.5% w/v BSA in PBST) for 3 seconds, the soaking and dipping steps were repeated for three times. […] A new baseline was run for 180 seconds in another well with running buffer. […] Finally, sensors were presoaked with 10 mM glycine (pH 1.5) for 3 seconds, and then were dipped in a well with running buffer for 3 seconds, the soaking and dipping steps repeated for three times. The association and dissociation curves were fit to a 1:1 Langmuir binding model using ForteBio Data Analysis 8.1.

Binder	Kd [pM]	koff [s⁻¹]	kon [M⁻¹ s⁻¹]
huD1D5-V7 (antibody, human IgG4 S228P, kappa, V domains shown, humanized IgG4/kappa; tested as 293F cell supernatant on Octet; also called hu CTLA4 D1D5-V7) VH: EVQLVESGGGLVKPGGSLRLSCAASGFTFSDYGMAWVRQAPGKGLEWVAFISNLAYSVYYADTETGRFTISRDDAKNSLYLQMNSLRAEDTAVYYCARSGLPYAMDYWGQGTTVTVSS VL: DIQMTQSPSSLSASVGDRVTITCRASQDISNYLNWYQQKPGKVPKLLIYYISRLHSGVPSRFSGSGSGTDFTLTISSLQPEDVATYFCQQGRMLPWTFGGGTKVEIKR	10200	0.000857	83900
huD1D5-V6 (antibody, human IgG4 S228P, kappa, V domains shown, humanized IgG4/kappa; tested as 293F cell supernatant on Octet; also called hu CTLA4 D1D5-V6) VH: EVQLVESGGGLVKPGGSLRLSCAASGFTFSDYGMAWVRQAPGKGLEWVAFISNLAYSVYYADTETGRFTISRDNAKNSLYLQMNSLRAEDTAVYYCARSGLPYAMDYWGQGTTVTVSS VL: DIQMTQSPSSLSASVGDRVTITCRASQDISNYLNWYQQKPGKVPKLLIYYISRLHSGVPSRFSGSGSGTDFTLTISSLQPEDVATYFCQQGRMLPWTFGGGTKVEIKR	25800	0.00157	60900
huD1D5-V8 (antibody, human IgG4 S228P, kappa, V domains shown, humanized IgG4/kappa; tested as 293F cell supernatant on Octet; also called hu CTLA4 D1D5-V8) VH: EVQLVESGGGLVKPGGSLRLSCAASGFTFSDYGMAWVRQAPGKGLEWVSFISNLAYSVYYADTETGRFTISRDNAKNSLYLQMNSLRAEDTAVYYCARSGLPYAMDYWGQGTTVTVSS VL: DIQMTQSPSSLSASVGDRVTITCRASQDISNYLNWYQQKPGKVPKLLIYYISRLHSGVPSRFSGSGSGTDFTLTISSLQPEDVATYFCQQGRMLPWTFGGGTKVEIKR	68100	0.00196	28800
huD1D5-V5 (antibody, human IgG4 S228P, kappa, V domains shown, humanized IgG4/kappa; tested as 293F cell supernatant on Octet; also called hu CTLA4 DID5-V5) VH: EVQLVESGGGLVKPGGSLRLSCAASGFTFSDYGMAWVRQAPGKGPEWVAFISNLAYSVYYADTETGRFTISRDDAKNSLYLQMNSLRAEDTAVYYCARSGLPYAMDYWGQGTTVTVSS VL: DIQMTQSPSSLSASVGDRVTITCRASQDISNYLNWYQQKPGKVPKLLIYYISRLHSGVPSRFSGSGSGTDFTLTISSLQPEDVATYFCQQGRMLPWTFGGGTKVEIKR	1730	0.00018	104000
huD1D5-V4 (antibody, human IgG4 S228P, kappa, V domains shown, humanized IgG4/kappa; tested as 293F cell supernatant on Octet; also called hu CTLA4 D1D5-V4) VH: EVQLVESGGGLVKPGGSLRLSCAASGFTFSDYGMAWVRQAPGKGLEWVSFISNLAYSVYYADTETGRFTISRDNAKNSLYLQMNSLRAEDTAVYYCARSGLPYAMDYWGQGTTVTVSS VL: DIQMTQSPSSLSASVGDRVTITCRASQDISNYLNWYQQKPGKTVKLLIYYISRLHSGVPSRFSGSGSGTDFTLTISSLQPEDVATYFCQQGRMLPWTFGGGTKVEIKR	4360	0.000408	93500
huC1D1-V5 (antibody, human IgG4 S228P, kappa, V domains shown, humanized IgG4/kappa; tested as 293F cell supernatant on Octet; also called hu CTLA4 C1D1-V5) VH: EVQLVESGGGLVQPGRSLRLSCTASGFTFSDNWMNWVRQAPGKGLEWVAQIRNKPYNYETYYSDSVKGRFTISRDDSKSIVYLQMNSLKTEDTAVYYCTGGMDYWGQGTTVTVSS VL: DIQMTQSPSSLSASVGDRVTITCGASEIIYGALNWYQQKPGKSPKLLIYGATNLADGVPSRFSGSGSGTDFTLTISSLQPEDVATYYCQKILSPPPWTFGGGTKVEIKR	2080	0.000476	229000
huC1D1-V4 (antibody, human IgG4 S228P, kappa, V domains shown, humanized IgG4/kappa; tested as 293F cell supernatant on Octet; also called hu CTLA4 C1D1-V4) VH: EVQLVESGGGLVQPGRSLRLSCTASGFTFSDNWMNWVRQAPGKGLEWVGQIRNKPYNYETYYSDSVKGRFTISRDDSKSIAYLQMNSLKTEDTAVYYCTGGMDYWGQGTTVTVSS VL: DIQMTQSPSSLSASVGDRVTITCGASEIIYGALNWYQQKPGKSPKLLIYGATNLADGMPSRFSGSGSGRDYTLTISSLQPEDVATYYCQKILSPPPWTFGGGTKVEIKR	952	0.000229	240000
huC1D1-V3 (antibody, human IgG4 S228P, kappa, V domains shown, humanized IgG4/kappa; tested as 293F cell supernatant on Octet; also called hu CTLA4 C1D1-V3) VH: EVQLVESGGGLVQPGRSLRLSCTASGFTFSDNWMNWVRQAPGKGLEWVGQIRNKPYNYETYYSDSVKGRFTISRDDSKSIVYLQMNSLKTEDTAVYYCTGGMDYWGQGTTVTVSS VL: DIQMTQSPSSLSASVGDRVTITCGASEIIYGALNWYQQKPGKSPKLLIYGATNLADGMPSRFSGSGSGRDYTLTISSLQPEDVATYYCQKILSPPPWTFGGGTKVEIKR	1160	0.000259	224000
huC1D1-V12 (antibody, human IgG4 S228P, kappa, V domains shown, humanized IgG4/kappa; tested as 293F cell supernatant on Octet; also called hu CTLA4 C1D1-V12; huC1D1-VI2) VH: EVQLVESGGGLVQPGRSLRLSCTASGFTFSDNWMNWVRQAPGKGLEWVGQIRNKPYNYETYYSDSVKGRFTISRDDSKSIAYLQMNSLKTEDTAVYYCTGGMDYWGQGTTVTVSS VL: DIQMTQSPSSLSASVGDRVTITCGASEIIYGALNWYQQKPGKVPKLLIYGATNLADGVPSRFSGSGSGTDFTLTISSLQPEDVATYYCQKILSPPPWTFGGGTKVEIKR	995	0.000304	306000
huC1D1-V11 (antibody, human IgG4 S228P, kappa, V domains shown, humanized IgG4/kappa; tested as 293F cell supernatant on Octet; also called hu CTLA4 C1D1-V11) VH: EVQLVESGGGLVQPGRSLRLSCTASGFTFSDNWMNWVRQAPGKGLEWVGQIRNKPYNYETYYSDSVKGRFTISRDDSKSIVYLQMNSLKTEDTAVYYCTGGMDYWGQGTTVTVSS VL: DIQMTQSPSSLSASVGDRVTITCGASEIIYGALNWYQQKPGKVPKLLIYGATNLADGVPSRFSGSGSGTDFTLTISSLQPEDVATYYCQKILSPPPWTFGGGTKVEIKR	1250	0.000457	365000

Second part, the binder after the results:

Kd [pM]	koff [s⁻¹]	kon [M⁻¹ s⁻¹]	Binder
< 1	< 1e-07	115000	huD1D5-V3 (antibody, human IgG4 S228P, kappa, V domains shown, humanized IgG4/kappa; tested as 293F cell supernatant on Octet; also called hu CTLA4 D1D5-V3) VH: EVQLVESGGGLVKPGGSLRLSCAASGFTFSDYGMAWVRQAPGKGLEWVAFISNLAYSVYYADTETGRFTISRDDAKNSLYLQMNSLRAEDTAVYYCARSGLPYAMDYWGQGTTVTVSS VL: DIQMTQSPSSLSASVGDRVTITCRASQDISNYLNWYQQKPGKTVKLLIYYISRLHSGVPSRFSGSGSGTDFTLTISSLQPEDVATYFCQQGRMLPWTFGGGTKVEIKR
720	6.25e-05	86800	huD1D5-V2 (antibody, human IgG4 S228P, kappa, V domains shown, humanized IgG4/kappa; tested as 293F cell supernatant on Octet; also called hu CTLA4 D1D5-V2) VH: EVQLVESGGGLVKPGGSLRLSCAASGFTFSDYGMAWVRQAPGKGLEWVAFISNLAYSVYYADTETGRFTISRDNAKNSLYLQMNSLRAEDTAVYYCARSGLPYAMDYWGQGTTVTVSS VL: DIQMTQSPSSLSASVGDRVTITCRASQDISNYLNWYQQKPGKTVKLLIYYISRLHSGVPSRFSGSGSGTDFTLTISSLQPEDVATYFCQQGRMLPWTFGGGTKVEIKR
< 1	< 1e-07	82000	huD1D5-V1 (antibody, human IgG4 S228P, kappa, V domains shown, humanized IgG4/kappa; tested as 293F cell supernatant on Octet; also called huCTLA4 D1D5-V1) VH: EVQLVESGGGLVKPGGSLRLSCAASGFTFSDYGMAWVRQAPGKGPEWVAFISNLAYSVYYADTETGRFTISRDDAKNSLYLQMNSLRAEDTAVYYCARSGLPYAMDYWGQGTTVTVSS VL: DIQMTQSPSSLSASVGDRVTITCRASQDISNYLNWYQQKPGKTVKLLIYYISRLHSGVPSRFSGSGSGTDFTLTISSLQPEDVATYFCQQGRMLPWTFGGGTKVEIKR
184	4.61e-05	250000	huC1D1-V1 (antibody, human IgG4 S228P, kappa, V domains shown, humanized IgG4/kappa; tested as 293F cell supernatant on Octet; also called huCTLA4 C1D1-V1) VH: EVQLVESGGGLVQPGRSLRLSCTASGFTFSDNWMNWVRQAPGKGLEWVAQIRNKPYNYETYYSDSVKGRFTISRDDSKSIVYLQMNSLKTEDTAVYYCTGGMDYWGQGTTVTVSS VL: DIQMTQSPSSLSASVGDRVTITCGASEIIYGALNWYQQKPGKSPKLLIYGATNLADGMPSRFSGSGSGRDYTLTISSLQPEDVATYYCQKILSPPPWTFGGGTKVEIKR
362	0.000169	466000	huC1D1-V7 (antibody, human IgG4 S228P, kappa, V domains shown, humanized IgG4/kappa; tested as 293F cell supernatant on Octet; also called hu CTLA4 C1D1-V7) VH: EVQLVESGGGLVQPGRSLRLSCTASGFTFSDNWMNWVRQAPGKGLEWVGQIRNKPYNYETYYSDSVKGRFTISRDDSKSIVYLQMNSLKTEDTAVYYCTGGMDYWGQGTTVTVSS VL: DIQMTQSPSSLSASVGDRVTITCGASEIIYGALNWYQQKPGKSPKLLIYGATNLADGVPSRFSGSGSGTDFTLTISSLQPEDVATYYCQKILSPPPWTFGGGTKVEIKR
736	0.000228	310000	huC1D1-V9 (antibody, human IgG4 S228P, kappa, V domains shown, humanized IgG4/kappa; tested as 293F cell supernatant on Octet; also called hu CTLA4 C1D1-V9) VH: EVQLVESGGGLVQPGRSLRLSCTASGFTFSDNWMNWVRQAPGKGLEWVAQIRNKPYNYETYYSDSVKGRFTISRDDSKSIVYLQMNSLKTEDTAVYYCTGGMDYWGQGTTVTVSS VL: DIQMTQSPSSLSASVGDRVTITCGASEIIYGALNWYQQKPGKVPKLLIYGATNLADGVPSRFSGSGSGTDFTLTISSLQPEDVATYYCQKILSPPPWTFGGGTKVEIKR
821	0.000287	349000	huC1D1-V6 (antibody, human IgG4 S228P, kappa, V domains shown, humanized IgG4/kappa; tested as 293F cell supernatant on Octet; also called hu CTLA4 C1D1-V6) VH: EVQLVESGGGLVQPGRSLRLSCTASGFTFSDNWMNWVRQAPGKGLEWVAQIRNKPYNYETYYSDSVKGRFTISRDDSKSIAYLQMNSLKTEDTAVYYCTGGMDYWGQGTTVTVSS VL: DIQMTQSPSSLSASVGDRVTITCGASEIIYGALNWYQQKPGKSPKLLIYGATNLADGVPSRFSGSGSGTDFTLTISSLQPEDVATYYCQKILSPPPWTFGGGTKVEIKR
559	0.000149	267000	huC1D1-V2 (antibody, human IgG4 S228P, kappa, V domains shown, humanized IgG4/kappa; tested as 293F cell supernatant on Octet; also called hu CTLA4 C1D1-V2) VH: EVQLVESGGGLVQPGRSLRLSCTASGFTFSDNWMNWVRQAPGKGLEWVAQIRNKPYNYETYYSDSVKGRFTISRDDSKSIAYLQMNSLKTEDTAVYYCTGGMDYWGQGTTVTVSS VL: DIQMTQSPSSLSASVGDRVTITCGASEIIYGALNWYQQKPGKSPKLLIYGATNLADGMPSRFSGSGSGRDYTLTISSLQPEDVATYYCQKILSPPPWTFGGGTKVEIKR
943	0.000304	322000	huC1D1-V10 (antibody, human IgG4 S228P, kappa, V domains shown, humanized IgG4/kappa; tested as 293F cell supernatant on Octet; also called hu CTLA4 C1D1-V10) VH: EVQLVESGGGLVQPGRSLRLSCTASGFTFSDNWMNWVRQAPGKGLEWVAQIRNKPYNYETYYSDSVKGRFTISRDDSKSIAYLQMNSLKTEDTAVYYCTGGMDYWGQGTTVTVSS VL: DIQMTQSPSSLSASVGDRVTITCGASEIIYGALNWYQQKPGKVPKLLIYGATNLADGVPSRFSGSGSGTDFTLTISSLQPEDVATYYCQKILSPPPWTFGGGTKVEIKR
